Assay: yeast display, Sf9 membrane polyspecificity reagent, FACS + sequencing; frameworks hold sequencing errors
Outline: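 Using colony PCR, genes from sorted yeast display clones were amplified, then sequenced on MiSeq at 2 × 250 and filtered by CDR length. The clones had been stained with 10% biotinylated, detergent-solubilized Sf9 membrane reagent for 1 hour at 4 °C and sorted by FACS into low and high (top ~1%) gates on anti-HA and streptavidin fluorescence. Polyreactivity labels come from the gate of origin.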

Row | Sequence | polyreactivity (PSR sort gate)
1 | QVQLVESGGGLVQAGGSLRLSCAASVITLFGYTMGWYRQAPGKERELVAAIRRRGVSTYYADSVKGRFTISRDNAKNTVYLQMNSLKPEDTAVYYCAKSLKPYTDYDYWGQGTQVTVSS | high polyreactivity
2 | QVQLVESGGGLVQAGGSLRLSCAASVNTFYGYDMGWYRQAPGKEWELVASITLSGDSTYYADSVKGRFTISRDNEKNTVYLQMNSLKPEDTAVYYCAGVYTYPLGYYHYTYAYWGQGTQVTVSS | low polyreactivity
3 | QVQLVESGGGLVQAGGSLRLSCAASVRIFGVYAMGWYRQAPGKERELVAAITSGGSTTYADSVKGRFTISRDNAKNTVYLQMNSLKPEDTAVYYCNKEPQPFFLYGYWGQGTQVTVSS | low polyreactivity
4 | QVQLVESGGGLVQAGGSLRLSCAASVRIFPHKAMGWYIQAPGKERELVAAISSNGGSTYYADSVKGRFTISRDNAKNTVYLQMNSLKPEDTAVYYCAKYRYFAGDGDYWGQGTQVTVSS | low polyreactivity
5 | QVQLVESGGGLVQAGGSLRLSCAASVRIFPTNAMGWYRQAPGKEREFVAAITWLGGSTYYADSVKGRFTISRDNAKNTVYLQMNRLKPEDTAVYYCAATGHIVFFRAYDYGYWGQGTQVTVSS | low polyreactivity
6 | QVQLVESGGGLVQAGGSLRLSCAASVRIFRFYVMGWYRQAPGKERELVAAISKRGASTSYADSVKGRFTISRDNAKNTVYLQMNSLKPEDTAVYYCAASAKRGEMGYWGQGTQVTVSS | high polyreactivity
7 | QVQLVESGGGLVQAGGSLRLSCAASVRIFSINAMGWYRQAPGKERELVAAINSGGSTHYADSVKGRFTISRDNAKNTVYLQMNSLKPEDTAGYYCAARKTVSYFRVRTFDYWGQGTQVTVSS | low polyreactivity
8 | QVQLVESGGGLVQAGGSLRLSCAASVRTFGQNTMGWYIQAPGKEREFVAAIDFNGGSTYYADSVKGRFTISRDNAKNTVYLQMNSLKPEDTAVYYCAADIYFYYYGSYDYWGQGTQVTVSS | low polyreactivity
9 | QVQLVESGGGLVQAGGSLRLSCAASVSIFQVYAMGWYRQAPGKERELVAAITWSAGSTYADSVKGRFTISRDNAKNTVYLQMNSLKPEDTAVYYSAAYPYVGYVSFSAYDYWGQGTQVTVSS | low polyreactivity
10 | QVQLVESGGGLVQAGGSLRLSCAASVSIFRKNAMGWYRQAPGKERELVAAITYRTGSTYYADSVKGRFTISRDNAKNTVYLQMNSLKPEDTAVYYCAAQTWGSGYGHIGRRRHDYWGQGTQVTVSS | high polyreactivity
11 | QVQLVESGGGLVQAGGSLRLSCAASVSIFYEYTMGWYRQAPGKERELVADITEGDGITYYADSVKGRFTISRDNAKNTVYLQMNSLKPEDTAVYYCNADVVQAVTTHYDYWGQGTQVTVSS | low polyreactivity
12 | QVQLVESGGGLVQAGGSLRLSCAASVSTFRTNAMGWYRQPPGKEREMVAAITLDGGSTYYADSVKGRFTISRDNEKNTVYLQMNSLKPEDTAVYYCAADVVSVVYLPFVNGGDYWGQGTQVTVSS | low polyreactivity
13 | QVQLVESGGGLVQAGGSLRLSCAASVSTFRWYAMGWYRQAPGKERELVAAISWSGSTTYYADSVKGRFTISRDNAKNTVYLQMNSLKPEDTAVYYCAAEVVFFGWNYDYWGQGTQVTVSS | high polyreactivity
14 | QVQLVESGGGLVQAGGSLRLSCAASVSTFVVNAMGWYRQAPGKERELVAAISRSDAITYYADSVKGRFTISRDNAKNTVYLQMNSLKPEDTAVYYCAAELSYRGYPYDYWGQGTQVTVSS | high polyreactivity
15 | QVQLVESGGGLVQAGGSLRLSCAASVTIFGDYTMGWYRQAPGKERELVAAITWSAGRTYYADSVKGRFTISRDNAKNTVYLQMNSLKPEDTAVYYCAAQVPEDTETVDYWGQGTQVTVSS | low polyreactivity
16 | QVQLVESGGGLVQAGGSLRLSCAASVYGMGWYRQAPGKERELVAAISNGGTTYYADSEKGRFTISRDNAKNTVYLQMNSLKPEDTAVYYCADRSWPGGFIYYYWGQGTQVTVSS | low polyreactivity
17 | QVQLVESGGGLVQAGGSLRLSCAASVYTFYWNAMGWYRQAPGKEREFVASFSGTSTYYADSVKGRFTISRDNAKNTVYLQMNSLKPEDTAVYYCNARLTLGPRKYEYWGQGTQVTVSS | low polyreactivity
18 | QVQLVESGGGLVQAGGSLRLSCAASVYTIGLYAMGCYRQAPGKEMELVAAMSWSGGSTYYADSVKGPFTISRDNAKKTVYLQMNSLKPEDTAVYYCAAVPYFSLEMGYWGQGTQVTVSS | low polyreactivity
19 | QVQLVESGGGLVQAGGSLRLSCAASYYAMGWYRQAPAKERELVASISSGGSTNYADSVKGRFTISRDNAKNTVFFQMNSLKPEDTAVYYCAADVADGVWVKIADEYWGQGTQVTVSS | low polyreactivity
20 | QVQLVESGGGLVQAGGSLRLSCAATARIFVRYAMGWYRQAPGKERELVAAISTSGGRTYYADSVKGRFTISRDNAKNTVYLQMNSLKPEDTAVYYCNARIKRPRGVYGGDYWGQGTQVTVSS | high polyreactivity
21 | QVQLVESGGGLVQAGGSLRLSCAATGFIFGYYALGGYRQAPGKERELVAAINKNGGSTYYADSVKGRFTISRDNAKNTVYLQMNSLKPEDTAVYYCAARARGYAWTYDYWGQGTQVTVSS | high polyreactivity
22 | QVQLVESGGGLVQAGGSLRLSCAATGITFYPNDMGWYRQAPGKERELVAAITTNDGDTYYADSVKGRFTISRDNAKNTVYLQMNSLKPEDTAVYYCAADSGSTSEYEYWGQGTQVTVSS | low polyreactivity

Row | Sequence | polyreactivity (PSR sort gate)
23 | QVQLVESGGGLVQAGGSLRLSCAATGLIFSRNAMGWYRQAPGKERELVAAISTGGSTYYADSVKGRFTISRDNAKITVYLQMNSLKPEDTAVYYCAAAPGYIYEYWGQGTQVTVSS | low polyreactivity
24 | QVQLVESGGGLVQAGGSLRLSCAATGLIIPFSAMGWDREPPGKDRDLVAAISWSAGSTYYADSVKGRFTISRDNAKNSVYLHMNSLKPEDTAVYYCATDRNPADFYWGQGTQVTVSS | low polyreactivity
25 | QVQLVESGGGLVQAGGSLRLSCAATGNTFLWYARGWYRQAPGKERELVAAITWSGGRTYYADSVKGRFTISRDNALYTVYLQMHSLKPEDTAVYYFAADYGYFLGGVYFHKVKFDYWGQGTQVTVSS | high polyreactivity
26 | QVQLVESGGGLVQAGGSLRLSCAATGRIFQRNAMGWYRQAPGKERELVAVISKSGGSTYYADSVKGRFTISRDNAKNTVYLQMNSLKPEDTAVYYCATRYFRPGEKYDYWGQGTQVTVSS | low polyreactivity
27 | QVQLVESGGGLVQAGGSLRLSCAATGRTFRIYAMGWYRQAPGKEREFVAAITWSGGRTYYADSVKGRFTISRDNAKNTVYLQMNSLKPEDTAVYYCAADPTYLRTLRFGSYDYWGQGTQVTVSS | high polyreactivity
28 | QVQLVESGGGLVQAGGSLRLSCAATGRTFRPYAMGWYTQAPGKEREMVDAIDSSGTSTYYADSVKGRFTISRDNAKKTVYLQMNSQKPEDTAVYYCAKAWPDHWYSRYDYWGQGTQVTVSS | low polyreactivity
29 | QVQLVESGGGLVQAGGSLRLSCAATGRTFSTYAMGWYRQAPGKERELVAAISSGGGRTYYADSVKGRFTISRDNAKNTVYLQMNSLKPEDTAVYYCAADFLWYIYIIGTSLEFDYWGQGTQVTVSS | low polyreactivity
30 | QVQLVESGGGLVQAGGSLRLSCAATGSIFASYAMGWYRQAPGKERELVASITRVDSTNYADSVKGRFTISRDNAKNTVYLQMNSLKPEDTAVYYCAADYYIVLTKSDGLFGSWGQGTQVTVSS | low polyreactivity
31 | QVQLVESGGGLVQAGGSLRLSCAATGSIFDYNAMGWYTQAPGKERELVAALTSGGSTNYADSVKGRFTISRDNAMNTVYLQMNSLKPEDTAVYYCAADHDYYPSNLDYWGQGTQVTVSS | low polyreactivity
32 | QVQLVESGGGLVQAGGSLRLSCAATGSIFYAYAMGWYRQAPGKERELVAGISGGGSTNYADSVKGRFTISRDNAKNTVYLQMNSLKPEDTAVYYCAADGWLSATYDGLPDSDSWGQGTQVTVSS | high polyreactivity
33 | QVQLVESGGGLVQAGGSLRLSCAATGSIFYQNAMGWYRQAPGKDRELVAAISSRGGRTYYADSVKGRFTISRDNAKNTVYLQMNSLKTEDTAVYYFNAARFPYSKDYDYWGQGNQVTVSS | high polyreactivity
34 | QVQLVESGGGLVQAGGSLRLSCAATGSNFGSNAMGWYRQAPGKEMELVAAITESGGDTYYADSVKGRFTISRDNAKNTVYLQMNSLKPEDSAVFYCAARYFGGIVDVSLFREYGSWGQGTQVTVSS | low polyreactivity
35 | QVQLVESGGGLVQAGGSLRLSCAATGSTFASYAMGWYIQAPGKERELVAAITNGGSTNYADSVKGRFTISRDNAKNNVYLQMNSLNPEDTAVYYCAAYDGFPRRYDYWGQGTQVTVSS | low polyreactivity
36 | QVQLVESGGGLVQAGGSLRLSCAATGSTFGYYAMGWYRQSPGKERELVAAISRSGTSTYYADSVKGRFTISRDNAKNTVYLQMISLKPEDTAVYYCIRYGFNSQDYWGQGTQVTVSS | high polyreactivity
37 | QVQLVESGGGLVQAGGSLRLSCAATGSTFWPYAMGWYRQAPGKERELVAAIRVIGGSTYYADSVKGRFTISRDNAKNTVYLQMNSLKPEDTAVYYCNAYRPGGARFYARYRYDYCGQGTQVTVSS | low polyreactivity
38 | QVQLVESGGGLVQAGGSLRLSCAATGSTFWQYVMGWYRQAPGKERELVAAISYSGGSTYYADSVKGRFTISRDNAKNTVYLQMNSLKPEDTAVYYCATRGYRWSVFDYWGQGTQVTVSS | high polyreactivity
39 | QVQLVESGGGLVQAGGSLRLSCAATGTTFGYYTMGWYRQAPGKERELDAAISWSGSSTYYADSVKGRFTISRDTAKNTVYLQMNSLKPEDTAVYYCNARGGARAWYFAYKYWGQGTQVTVSS | high polyreactivity
40 | QVQLVESGGGLVQAGGSLRLSCAATRSIFSLYTMGWYRQAPGKERELVAVISSAGRTYYADSVKGRFTISRDNGKNTVYLQMNSLKPEDTAVYYCARLTGQRTQTRSDYWGQGTQVTVSS | high polyreactivity
41 | QVQLVESGGGLVQAGGSLRLSCAAYGFTFTRKAMGWYRQAPGKERELVAAISGSGGSTYYADSVKGRYTISRDNAKNTVYLQMNSLKPADTAVYYCAKDGWWRKYDYWGQGTQVTVSS | high polyreactivity
42 | QVQLVESGGGLVQAGGSLRLSCAAYGFTIRRYAMGWSIQAPGKERELVAAITWSAGSTYYADSVKGRFTISRDNAKYTVYLQMNSLKPEDTAVYYCAARCKRWGADSGYYWGNGTQVTVSS | high polyreactivity
43 | QVQLVESGGGLVQAGGSLRLSCAAYGGIFKQYALGCYRQAPGKERELVAANTWSGGSTYYADSVKGRFTISRDNAKNTVYLQMNSLKPEDTAVYYCAKDYVLFQYVDFQDDDYWGQGTQVTVSS | low polyreactivity

— the nanobody polyreactivity screen of Harvey et al. (2022)
